Laboratory results: the DeepSol protein solubility set

assay: soluble on expression in E. coli; label from the status in PepcDB or PDB records

Sequence | soluble on expression in E. coli
MGSDKIHHHHHHMVILLNPNILESSFIPERLRARDSEISKIMEVVIKPALNNITTNLIIYGDSGTGKTVTMRFLAREVRNPKIFYINAISYRSVKNVLVELLSHEGVIISERASYANIYTRLEKAIEKYDKTVILVIDEAANILRTDEEGLYYLFRSKDSFDVNISAIFIAMDDPALLLNQRIKRSYGLFNELKFKRYSKDEILEIVRDRARMSLNTTSYDDTIIDYIAEISSEFGSARVAIDILAKAAHIAEYRRSENISYDDVRAAKSMISPYVTESKLASLDKYELAALLAICGCLSHSVSTDIACVSEQLKILREQYSLDPEMDIYEILRKLEGLGIINSYVESSGKSSGVRKKISIHDVPVSVLAEKIGNLLNGMA | not soluble
MGSDKIHHHHHHMNNVLILYPKLFNCYSKFSRKVLKITSSLGAATLVYPDDPNGLIEKFCEESSGKMTNKEFPNWTPDDITHAIIFDDGEEFIEETERLKESKKPLRLIGICITRVINIKTETEYQSEKSTPIYEYIGRGSYWGNPYSMFEEGEDREEVIRKYKYDFDFEKFPNKEKSEVYKLAGKRLGCFCKPQACHGDVLADFLNSWDDGK | not soluble
MNAYQKTIGRAVTLSGVGIHGGAPASARLLPADADTGILFQRSDIKDSAPVCAHVSQIGATDLCTSLGAREARIDTVEHLMAAISALGIDNLVVEIEGPEVPILDGTSARFIEAVDSVGVVTQDAKRRFIRILKTVRVEAGNSWGEFRPYDGTRFEVEIDFECPLIGRQKFAHDVDEETFRKELSTARTFGFMKDVERLWAAGLALGASLDNSLVIGDDNSIVNADGLRFKDEFVRHKTLDAVGDLALAGLPFIGCFSSYRGGHRLNSEAVKALLSDETAFEIIEALEHHHHHH | soluble
MSLAYTKKKYTPKTKEQIKEETKEIMDKVLTDITKYYRSPEDMLELANFMAKFSNYSPKNMQLIRSQFENAYACANFKAFKDAGFHVNKGETAMKVFHPYVKEYVRDPRTKLAIPLGKLTEEQKKQVKNGELKVEKQTNYYLKATAFDISQTNAKPEDLPKIFPNRQFNFEINDEGHHHHHH | not soluble
MLGKSLVKEKITDSVVSSPNGLVLLAPEMTLPVDVEENKPEESKDSAHERNCATAGVESPSNPVDSCLKLTYVEEGDNDRESNLKLLDGSVEEKEDTKKLTDIDINSLPDEVDDSHADQSDTKEQEIDDKEDKTPLSDDGCEGKAEGTKESNQQPDSNKVDNSQPLGNGGTGEELGNRTLALKREVTPTLRASPRLIQRSWRTSRVNQKFTGTTNAVLLDSPHRCV | soluble
MGSDKIHHHHHHVEASYAQRLRQEKGYAYADNCNTKTSLSIKMSMVLLTPTVSSNFEKDSLIYMAKKIHFISNSIVKEINNSDNVSILVLDKEEIISLFKANGILLFRGFDVDVDIFKEFTNLLSIDFINYAGGAFSRRVINGDQTVLSVNDFKSEIKLHGEMYYQKNIPLMLWFFCANPPLEDGETTVCDGRQFFHEISSSTKELFRQKNLKFTVRMSKEDWQKKYKTDDVNQLKEICRNNNTHLKIFDDRSIMLEYISPAIIPSRCGNYQVFINSLLPTKQLSPNILKFEDDSDIPEEVVSELNEIAEKITTEISWRKGDILMIDNTRILHGRRSFADDQRDIYIRLCSPAFSF | not soluble
MKGVHHRPHEAVPTWACGWGVATTEHMAVSRRKHFSSICLHAQGSSRLPVLSTGTAVSELLRTSLCQVVELGPSPYLSLVPTVLLTVQHLGALAWGWRPW | soluble
MNSIHGHYHIQLSNYSAGENLQSATLTEGVIGAHRVKVETALSHSNLQKKLSATIKHNQSGRSMLDRKLTSDGKANQRSSFTFSMIMYRMIHFVLSTRVPAVRESVANYGGNINFKFAQTKGAFLHKIIKHSDTASGVCEALCAHWIRSHAQGQSLFDQLYVGGRKGKFQIDTLYSIKQLQIDGCKADVDQDEVTLDWFKKNGISERMIERHCLLRPVDVTGTTESEGLDQLLNAILDTHGIGYGYKKIHLSGQMSAHAIAAYVNEKSGVTFFDPNFGEFHFSDKEKFRKWFTNSFWGNSMYHYPLGVGQRFRVLTFDSKEV | not soluble
MKNNKVLVVVGPTAVGKTALGIDLAIKFNGEIISGDSQQVYQGLDIGTAKVTMAEQAQVPHHLIDVRKWTENFSVHDFVIEANQLIKEILDQGKVPIIVGGTGLYIQSLIEGYHLGGQENHEEMMKLREELSLLSDEELFAKVIKINPDISELNRRRAIRFLELQTFGSQDENLGSDYDFLLIGLNADRKVLYDRINQRVDQMMREGLLDEARTLYEQAPEVQAAKGIGYKEFFPYFSGDISLEEAVELVKRNSRRYAKRQLTWFKNRMSVEFEDVFSKNYPEPIFDKVTQFLNLEHHHHHH | not soluble
SLNPRDVVIVDFGRTPMGRSKGGMHRNTRAEDMSAHLISKVLERNSKVDPGEVEDVIWGCVNQTLEQGWNIARMASLMTQIPHTSAAQTVSRLCGSSMSALHTAAQAIMTGNGDVFVVGGVEHMGHVSMMHGVDPNPHMSLYAAKASGMMGLTAEMLGKMHGISREQQDAFAVRSHQLAHKATVEGKFKDEIIPMQGYDENGFLKIFDYDETIRPDTTLESLAALKPAFNPKGGTVTAGTSSQITDGASCMIVMSAQRAKDLGLEPLAVIRSMAVAGVDPAIMGYGPVPATQKALKRAGLNMADIDFIELNEAFAAQALPVLKDLKVLDKMNEKVNLHGGAIALGHPFGCSGARISGTLLNVMKQNGGTFGLSTMCIGLGQGIATVFERV | soluble
MNRVEPPYDVKEALVFTQKMAQLSKALWKSIEKDWQQWLKPYDLNINEHHILWIAYQLNGASISEIAKFGVMHVSTAFNFSKKLEERGYLRFSKRLNDKRNTYVQLTEEGTEVFWSLLEEFDPTRNAVFKGSQPLYHLFGKFPEVAEMMCMIRHIYGDDFMEIFETSLTNIDNDFESVNGKLKKKAKDSAADEPAEELEPVNS | soluble
MAHHHHHHMAYALVEADSISFSLKPADLCADSPLEYGSPREKETNGLSPCGDKGPLTPFGVRPHLFSKGWWRLVVLSSVPLDSYRAIPKDTWSFTEKGQLKQGSNALLFSYACTVSDRTDITLLLDVHSQRPIPFRIKIFRAGVEGPPVFVSEECVNHLFVPHVAVDVPEKVKNVAYIIEAWLDKEKVEEWERMRRLSQELKFLLAAEAARVKAEMKQQKELQEYHEDPRAFKERLLNQEMGPVENLVPTPLREQMSVSSKKGRPSVDKRRTLSNAAPSRQTIVRTSVTPSTPASAVAVHIDSIDPELVVTYDLRLYFSAKTDVKCVATGKDPLTTMRGLWVHQLILFLGKPLRSPVVAREGSVGSRRILLHLLKNYTRRII | not soluble
QTIRSASDIRDVFINAGIKGEEYDAAWNSFVVKSLVAQQEKAAADVQLRGVPAMFVNGKYQLNPQGMDTSNMDVFVQQYADTVKYLSEKKGGGTGAQYEDGKQYTTLEKPVAGAPQVLEFFSFFCPHCYQFEEVLHISDNVKKKLPEGVKMTKYHVNFMGGDLGKDLTQAWAVAMALGVEDKVTVPLFEGVQKTLIK | soluble
MSALTPPTDMPTPTTDKITQAAMETIYLCKFRVSMDGEWLCLRELDDISLTPDPEPTHEDSWEDLTDLVEQVRADPEDPNYLMANERMNLMNMAKLSIKGLIESALNLGRTLDSDYAPLQQFFVVMEHCLKHGLKAKKTFLGQNKSFWGPLELVEKLVPEAAEITASVKDLPGLKTPVGRGRAWLRLALMQKKLSEYMKALINKKELLSEFYEVNALMMEEEGAIIAGLLVGLNVIDANFCMKGEDLDSQVGVIDFSMYLKDGNSSKGSEGDGQITAILDQKNYVEELNRHLNATVNNLQTKVDLLEKSNTKLTEELAVANNRIITLQEEMERVKEESSYLLESNRKGPKKTELQKGKR | soluble
MGSDKIHHHHHHMLMKGVTLRGLEVFEALAKSGSVAQAADITGLSQPAVSQQLRNLEKALGSDLVDHGRRPMVLTSAGRSFLSRTQAILSELRLAQSELTVMDLSHLPALSIGLIDDFDNDLTPRLATILADSLTQCRFKMVTASSHDIHRAMAEKDLHIGVAASTGELRTGVTEYPLVEEPFILVAPRGCITDPDDVGNQLNHLPLLRYARDQLISQQIESHLSRNKMEFDDRFEIGSHLALMAMVARRIGWAITTPLGYMRAVRFHEDIDAYALPFAGFSRRISLFAQSDWPDTVPLEVAGTVRRLTQSQMITPAINRLPWLAGQLRVIEE | not soluble
MAHHHHHHMNPQTSLTRKQCDFTKLIMAGYDLELNNGSTQDFDVMFHGPNGTAYEGGIWKVHVTLPDDYPFASPSIGFMNKLLHPNVDEASGSVCLDVINQTWTPLYSLVNVFEVFLPQLLTYPNPSDPLNSDAASLLMKDKNIYEEKVKEYVKLYASKDLWEQQKKEKKPSNINGNISPVSELSYVDQDVQDIDLDNL | soluble
MAHHHHHHMAAYGIVESPDNVDYKTKCCCQTTDGVYFQVPKEYFRLHANLSRRKLLIAEPFGVPLDSSAFESLVVLLEKAAIVSPAAATAGTEVVSKGDGAKQQWIKDLNKRQQKFVGACLGVTTWDGADVYFYEEKLPKESDVVWVKVIQVNDTSAVVQLLEYGNHEGIIPYTEITRIRIRAIGKVIKVGKNEAAQVIRIDKDKGYIDLSKKQVTLKEAKDCEARFFKGNEVRSVVCHVADECGVPPAEAMKRIAYPLYRRQPGKHAWEWLYELNQTKDVKGILGDLEISEAEIKVLMTTLEHTMRTEIATIHADIEMTCFQCDGVNALREVLLVGRDFKAGKDPLIPISVTIVGPPKYRLRAKTELKEEGIVRMKEAIEMMKIEMAKRGGILKVVAGPFVLGEEEHTKEERNEDAEDDEGEDTD | not soluble
MNAPIEPHRFTLEPFEAHRFANLCGQLDEHLRLIEQRLDIEIRNRGNQFELIGETTQTRSAENLLRRLYRETKGTELTPDMVHLFLQESGVDGLDNHPAAEVGVSLRTKKGMIRPRGLNQQRYVKEVLSNDINFGIGPAGTGKTYLAVACAVDALEREQIRRILLVRPAVEAGEKLGFLPGDLAQKIDPYLRPLYDALYEMLGFEYVAKLIEKQVIEVAPLAYMRGRTLNNSFIILDESQNTTVEQMKMFLTRIGFGSTAVITGDITQVDLPKGTRSGLTHVIDVLKDVPGISFTHFKPKDVVRHPLVQRIVEAYERFDDQLSDGPSGNNGYSRDKNRNA | not soluble
MAHHHHHHMTNVVECTFKTPPETAKAPDNAIIWNSFQYCDEKGWYSLTNHDEIMLRPTAFSDGRIKFLPQLEKIPEEFESVLCGKYDAKAWGKDDCNIVIEGDKDVHISLPGLQEKINYNHRERFPTFLKNWKIIVGMLNEHITVIRINTETAIIVSINEKSNVTVKCVNFNNGFLCVNPHTNLAIAYGDFALSELKKCELVPNITHEGAEWGFFVHLFKWGHIIIPKDIEIKLPSPGLKLIGKKIDTVAIISLPPNIYIHVKIDGPKCIRKLEYGQDYSITAIKSSESDIDIYLLFDGQLIKYEFSFDTRLNKVGKGRSINYAKLKCTNKSKEVTSFVFQATANSKLLLDSNCPTDNMGHLLCNQTISVFDAETGEYLSHPQGLQLTEVFNTLSYPPEKE | not soluble
MWIGMRDKWKGVGKVTQQEIIESLLQFINQETSTEEEFNEHALMLFAYQYENNLPYRTYCMQKGKTARTVKTWRDIPAVPINAFKELTLSCVSPEQAERVFMTSGTTRGVRGKHYHPTLSVYDHSMIVNFRKRFMKERDKIKMGILFPTEEHMPNSSLAHYLALAVNVFGTEDSHYLVDRDGLNMDRLLAELEQAEQSGEPYALLGASFSFVHVFEELAKRGKTFRLPEGSRILDTGGFKNQSREMDLDEFYDTLSAYLGVPRRECINMYGMTELSTQFYDDGNETVPSVKSGPHWIRTRVIHPLTGEEMPKGKRGVLVHCDLGNFNSVTTILTEDMGVETDGGFLLLGRVQGAEAKGCSMAVEEFIRAAKGTSELEHHHHHH | not soluble
MNKKMIFFDIDGTIVDEKTHVIPEGTIAAIKKARSNGHLVFINTGRTFFNVPDSIRQIGFDGYVCGCGTYIHINGQTLLEKSISHKRCVEIVEKLRECKLDALLEGQKDFFFDQREPVSEKTLELKSKFGKRGYDVSKSWDDSDIVFDKFVIWTRKESNLEAFKSHISNDFDYIDREDEEGEFGEIVLKGYSKATGIKFLQDYFNIPIEDCYALGDSLNDLPMLQYVPNSIAMGNSSKGLFDLVAFVTKDIMEDGIEYALKHYNII | not soluble
